Reference: US12679878B2, “CRF2 receptor agonists and their use in therapy” (SANOFI, priority 2020, dated 2026)
Starred links: 1 amine or outer side, 2 acyl side, 3 side chain; linkers in the order of their positions; H or OH if unused. Non-standard residues stand in square brackets, D forms with d. Groups on a side chain read outwards from the residue. No end group written: not given here. *: point of attachment. C18 diacid = O=C(O)CCCCCCCCCCCCCCCCC(=O)*; γGlu = O=C(O)[C@H](CCC(=O)[*:2])N[*:1]; AEEA = NCCOCCOCC(=O)O; Aib = CC(C)(N)C(=O)O

biological target: human corticotropin-releasing factor 2α (CRF2 α receptor) (human), Q13324; experiment: cell-based or functional assay
Sequence (Q13324 20-411): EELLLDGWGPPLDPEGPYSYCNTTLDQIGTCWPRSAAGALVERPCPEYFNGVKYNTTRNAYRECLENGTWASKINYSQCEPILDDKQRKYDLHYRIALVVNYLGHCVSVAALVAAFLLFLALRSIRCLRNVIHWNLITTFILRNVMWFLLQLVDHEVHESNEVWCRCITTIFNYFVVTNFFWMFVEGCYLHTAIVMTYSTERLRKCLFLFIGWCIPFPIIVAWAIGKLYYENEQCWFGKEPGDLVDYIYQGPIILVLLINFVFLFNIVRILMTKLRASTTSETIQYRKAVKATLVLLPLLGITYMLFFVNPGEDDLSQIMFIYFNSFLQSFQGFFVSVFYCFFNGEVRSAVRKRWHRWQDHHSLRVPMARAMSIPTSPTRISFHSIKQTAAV

EC50 [nM], 0% HSA [nM]	EC50 [nM], 0.1% HSA [nM]	Binder
0.3		IVLSLDVPIGLK([AEEA-AEEA-γGlu-C18 diacid])QKLLKQQRQRKERQQAEKNARILARV-NH2 (N-terminus assumed; SMILES CC[C@H](C)[C@H](N)C(=O)N[C@H](C(=O)N[C@@H](CC(C)C)C(=O)N[C@@H](CO)C(=O)N[C@@H](CC(C)C)C(=O)N[C@@H](CC(=O)O)C(=O)N[C@H](C(=O)N1CCC[C@H]1C(=O)N[C@H](C(=O)NCC(=O)N[C@@H](CC(C)C)C(=O)N[C@@H](CCCCNC(=O)COCCOCCNC(=O)COCCOCCNC(=O)CC[C@H](NC(=O)CCCCCCCCCCCCCCCCC(=O)O)C(=O)O)C(=O)N[C@@H](CCC(N)=O)C(=O)N[C@@H](CCCCN)C(=O)N[C@@H](CC(C)C)C(=O)N[C@@H](CC(C)C)C(=O)N[C@@H](CCCCN)C(=O)N[C@@H](CCC(N)=O)C(=O)N[C@@H](CCC(N)=O)C(=O)N[C@@H](CCCNC(=N)N)C(=O)N[C@@H](CCC(N)=O)C(=O)N[C@@H](CCCNC(=N)N)C(=O)N[C@@H](CCCCN)C(=O)N[C@@H](CCC(=O)O)C(=O)N[C@@H](CCCNC(=N)N)C(=O)N[C@@H](CCC(N)=O)C(=O)N[C@@H](CCC(N)=O)C(=O)N[C@@H](C)C(=O)N[C@@H](CCC(=O)O)C(=O)N[C@@H](CCCCN)C(=O)N[C@@H](CC(N)=O)C(=O)N[C@@H](C)C(=O)N[C@@H](CCCNC(=N)N)C(=O)N[C@H](C(=O)N[C@@H](CC(C)C)C(=O)N[C@@H](C)C(=O)N[C@@H](CCCNC(=N)N)C(=O)N[C@H](C(N)=O)C(C)C)[C@@H](C)CC)[C@@H](C)CC)C(C)C)C(C)C) [SEQ ID NO: 16]
0.07	3.99	IVLSLD[dV]PIGLK([AEEA-AEEA-γGlu-C18 diacid])QILLKQERQKK[Aib]RQQAETNKRILERV-NH2 (N-terminus assumed; SMILES CC[C@H](C)[C@H](N)C(=O)N[C@H](C(=O)N[C@@H](CC(C)C)C(=O)N[C@@H](CO)C(=O)N[C@@H](CC(C)C)C(=O)N[C@@H](CC(=O)O)C(=O)N[C@@H](C(=O)N1CCC[C@H]1C(=O)N[C@H](C(=O)NCC(=O)N[C@@H](CC(C)C)C(=O)N[C@@H](CCCCNC(=O)COCCOCCNC(=O)COCCOCCNC(=O)CC[C@H](NC(=O)CCCCCCCCCCCCCCCCC(=O)O)C(=O)O)C(=O)N[C@@H](CCC(N)=O)C(=O)N[C@H](C(=O)N[C@@H](CC(C)C)C(=O)N[C@@H](CC(C)C)C(=O)N[C@@H](CCCCN)C(=O)N[C@@H](CCC(N)=O)C(=O)N[C@@H](CCC(=O)O)C(=O)N[C@@H](CCCNC(=N)N)C(=O)N[C@@H](CCC(N)=O)C(=O)N[C@@H](CCCCN)C(=O)N[C@@H](CCCCN)C(=O)NC(C)(C)C(=O)N[C@@H](CCCNC(=N)N)C(=O)N[C@@H](CCC(N)=O)C(=O)N[C@@H](CCC(N)=O)C(=O)N[C@@H](C)C(=O)N[C@@H](CCC(=O)O)C(=O)N[C@H](C(=O)N[C@@H](CC(N)=O)C(=O)N[C@@H](CCCCN)C(=O)N[C@@H](CCCNC(=N)N)C(=O)N[C@H](C(=O)N[C@@H](CC(C)C)C(=O)N[C@@H](CCC(=O)O)C(=O)N[C@@H](CCCNC(=N)N)C(=O)N[C@H](C(N)=O)C(C)C)[C@@H](C)CC)[C@@H](C)O)[C@@H](C)CC)[C@@H](C)CC)C(C)C)C(C)C) [SEQ ID NO: 150]
0.08	3.87	IVLSLD[dV]PIGLK([AEEA-AEEA-γGlu-C18 diacid])QILLKQERQKK[Aib]REQAEKNKRILERV-NH2 (N-terminus assumed; SMILES CC[C@H](C)[C@H](N)C(=O)N[C@H](C(=O)N[C@@H](CC(C)C)C(=O)N[C@@H](CO)C(=O)N[C@@H](CC(C)C)C(=O)N[C@@H](CC(=O)O)C(=O)N[C@@H](C(=O)N1CCC[C@H]1C(=O)N[C@H](C(=O)NCC(=O)N[C@@H](CC(C)C)C(=O)N[C@@H](CCCCNC(=O)COCCOCCNC(=O)COCCOCCNC(=O)CC[C@H](NC(=O)CCCCCCCCCCCCCCCCC(=O)O)C(=O)O)C(=O)N[C@@H](CCC(N)=O)C(=O)N[C@H](C(=O)N[C@@H](CC(C)C)C(=O)N[C@@H](CC(C)C)C(=O)N[C@@H](CCCCN)C(=O)N[C@@H](CCC(N)=O)C(=O)N[C@@H](CCC(=O)O)C(=O)N[C@@H](CCCNC(=N)N)C(=O)N[C@@H](CCC(N)=O)C(=O)N[C@@H](CCCCN)C(=O)N[C@@H](CCCCN)C(=O)NC(C)(C)C(=O)N[C@@H](CCCNC(=N)N)C(=O)N[C@@H](CCC(=O)O)C(=O)N[C@@H](CCC(N)=O)C(=O)N[C@@H](C)C(=O)N[C@@H](CCC(=O)O)C(=O)N[C@@H](CCCCN)C(=O)N[C@@H](CC(N)=O)C(=O)N[C@@H](CCCCN)C(=O)N[C@@H](CCCNC(=N)N)C(=O)N[C@H](C(=O)N[C@@H](CC(C)C)C(=O)N[C@@H](CCC(=O)O)C(=O)N[C@@H](CCCNC(=N)N)C(=O)N[C@H](C(N)=O)C(C)C)[C@@H](C)CC)[C@@H](C)CC)[C@@H](C)CC)C(C)C)C(C)C) [SEQ ID NO: 151]
0.06	2.54	IVLSLD[dV]PIKLK([AEEA-AEEA-γGlu-C18 diacid])QILLKQERQKK[Aib]REQAETNKRILERV-NH2 (N-terminus assumed; SMILES CC[C@H](C)[C@H](N)C(=O)N[C@H](C(=O)N[C@@H](CC(C)C)C(=O)N[C@@H](CO)C(=O)N[C@@H](CC(C)C)C(=O)N[C@@H](CC(=O)O)C(=O)N[C@@H](C(=O)N1CCC[C@H]1C(=O)N[C@H](C(=O)N[C@@H](CCCCN)C(=O)N[C@@H](CC(C)C)C(=O)N[C@@H](CCCCNC(=O)COCCOCCNC(=O)COCCOCCNC(=O)CC[C@H](NC(=O)CCCCCCCCCCCCCCCCC(=O)O)C(=O)O)C(=O)N[C@@H](CCC(N)=O)C(=O)N[C@H](C(=O)N[C@@H](CC(C)C)C(=O)N[C@@H](CC(C)C)C(=O)N[C@@H](CCCCN)C(=O)N[C@@H](CCC(N)=O)C(=O)N[C@@H](CCC(=O)O)C(=O)N[C@@H](CCCNC(=N)N)C(=O)N[C@@H](CCC(N)=O)C(=O)N[C@@H](CCCCN)C(=O)N[C@@H](CCCCN)C(=O)NC(C)(C)C(=O)N[C@@H](CCCNC(=N)N)C(=O)N[C@@H](CCC(=O)O)C(=O)N[C@@H](CCC(N)=O)C(=O)N[C@@H](C)C(=O)N[C@@H](CCC(=O)O)C(=O)N[C@H](C(=O)N[C@@H](CC(N)=O)C(=O)N[C@@H](CCCCN)C(=O)N[C@@H](CCCNC(=N)N)C(=O)N[C@H](C(=O)N[C@@H](CC(C)C)C(=O)N[C@@H](CCC(=O)O)C(=O)N[C@@H](CCCNC(=N)N)C(=O)N[C@H](C(N)=O)C(C)C)[C@@H](C)CC)[C@@H](C)O)[C@@H](C)CC)[C@@H](C)CC)C(C)C)C(C)C) [SEQ ID NO: 149]
